This note sets out measurements from publication PMC3040192.

Targets include His149 (UniProt position 149, DAQNSHSYCFE); His141 (UniProt position 141, VFSEFHDADAQ); His114 (UniProt position 114, KLYLTHIDAEV); His124 (UniProt position 124, VEGDTHFPDYE); His45 (UniProt position 45, VIMGRHTWESI).
What all share (experiment): mass spectrometry
What all share (conditions): 37 °C (72 h incubation), 50 mM NaCl plus 50 mM buffer, 50 mM MES (pH 5.0-7.5) or 50 mM HEPES (pH 8.0-9.0), folded

Setting [1] is: Binary complex with methotrexate (DHFR-MTX; five-fold molar excess of MTX added during preparation).
The mark [2] stands for this setting: Ternary complex with folate and NADP+ (DHFR-folate-NADP+; five-fold molar excess of each ligand added during preparation).
[3] abbreviates: Ternary complex with methotrexate and NADPH (DHFR-MTX-NADPH; five-fold molar excess of each ligand added during preparation).

One may read the pKa as the pH at which an ionisable group is half protonated. Consider “Dihydrofolate reductase (DHFR) (Escherichia coli)”, for which the pKa was 6.13 (±0.13) with His149 (setting [1]); 6.84 (±0.17) with His149 (setting [2]); 6.17 (±0.10) with His149 (setting [3]); 6.51 (±0.04) with His149 (apo-DHFR (no ligand)); 8.12 (±0.14) in the series with His141 (setting [1]); 8.14 (±0.11) with His141 (setting [2]). Also, the pKa with His141 (setting [3]) is listed as 8.29 (±0.10); in the series with His141 (apo-DHFR (no ligand)), 8.04 (±0.08); in the series with His114 (setting [2]), 7.17 (±0.16); with His114 (setting [3]), 6.99 (±0.10); with His114 (apo-DHFR (no ligand)), 6.84 (±0.20); with His124 (setting [1]), 7.02 (±0.06). Moreover, the pKa in the series with His124 (setting [2]) is on record as 7.61 (±0.19); with His124 (setting [3]), 7.17 (±0.20); with His124 (apo-DHFR (no ligand)), 7.60 (±0.03); with His45 (setting [1]), 7.15 (±0.04); in the series with His45 (setting [2]) it was 7.30 (±0.07); with His45 (setting [3]), 7.43 (±0.03). In addition, the pKa with His45 (apo-DHFR (no ligand)) is recorded as 6.99 (±0.07).
